Data from patent publication US20190169286A1 (Chugai, published 2019).

How the values were obtained:
[1] = molecular target: T1, human IL-8 (human, UniProt P10145 23-99, limits assumed); experiment: SPR Biacore T200, Protein A/G capture, pH 7.4, 40C;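 also: antibodies captured via Protein A/G, which was amine-coupled to a CM4 sensor chip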
T1 construct: also called hIL-8; hIL8
Experimental: (§1) An appropriate amount of Protein A/G (PIERCE) was immobilized onto the Sensor chip CM4 (GE Healthcare) by the amine coupling method and the antibodies of interest were captured. […] To regenerate the sensor chip, 25 mM NaOH and 10 mM glycine-HCl (pH 1.5) were used. […] The BIACORE T200 Evaluation Software (GE Healthcare) was used to calculate each parameter.

[2] = molecular target: T1, human IL-8; experiment: SPR Biacore T200, Protein A/G capture, pH 5.8, 37C;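 also: antibodies captured by Protein A/G amine-coupled onto a CM4 sensor chip, with kinetic parameters derived using Biacore T200 Evaluation Software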
Experimental: as §1

T1 sequence (P10145 23-99 limits assumed): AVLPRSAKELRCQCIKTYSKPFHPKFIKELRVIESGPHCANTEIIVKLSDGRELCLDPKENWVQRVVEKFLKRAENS

Row | Binder | Kd [1] | Kd [2] | koff [2]
1 | H0932/L0395 (antibody, name in Kabat numbering, V domains shown) VH: QVQLVESGGGLVQPGGSLRLSCAASGFTFSDYYLSWVRQAPGKGLEWVGLIRNKDNHHTPEYSASVKGRFTISRDDSKNSLYLTMSDLKTEDTAVYYCARENHRYDVELAYWGQGTLVTVSS VL: DIQMTQSPSSLSASVGDRVTITCRASEIIYSYLAWYQQKPGKAPKLLIYKAKTHADGVPSRFSGSGSGTDFTFTISSLQPEDIATYYCKHHFGFPRTFGQGTKVEIKR | 0.16 nM |  | 
2 | H0932/L0442 (antibody, human IgG1, kappa, name in Kabat numbering, V domains shown) VH: QVQLVESGGGLVQPGGSLRLSCAASGFTFSDYYLSWVRQAPGKGLEWVGLIRNKDNHHTPEYSASVKGRFTISRDDSKNSLYLTMSDLKTEDTAVYYCARENHRYDVELAYWGQGTLVTVSS VL: DIQMTQSPSSLSASVGDRVTITCRASEIIYEYLAWYQQKPGKAPKLLIYKAKTHADGVPSRFSGSGSGTDFTFTISSLQPEDIATYYCKHHFGFPRTFGQGTKVEIKR |  | 79 nM | 
3 | H1000/L0395 (antibody, human IgG1, kappa, name in Kabat numbering, V domains shown) VH: QVQLVESGGGLVQPGGSLRLSCAASGFTFSEYYLSWVRQAPGKGLEWVGLIRNKDNHHTPEYSASVKGRFTISRDDSKNSLYLTMSDLKTEDTAVYYCARENHRYDVELAYWGQGTLVTVSS VL: DIQMTQSPSSLSASVGDRVTITCRASEIIYSYLAWYQQKPGKAPKLLIYKAKTHADGVPSRFSGSGSGTDFTFTISSLQPEDIATYYCKHHFGFPRTFGQGTKVEIKR | 0.14 nM | 89 nM | 0.02 s⁻¹
4 | H1022/L0395 (antibody, human IgG1, kappa, name in Kabat numbering, V domains shown) VH: QVQLVESGGGLVQPGGSLRLSCAASGFTFSDYYLSWVRQAPGKGLEWVGLIRNKDNHHHPEYSASVKGRFTISRDDSKNSLYLTMSDLKTEDTAVYYCARENHRYDVELAYWGQGTLVTVSS VL: DIQMTQSPSSLSASVGDRVTITCRASEIIYSYLAWYQQKPGKAPKLLIYKAKTHADGVPSRFSGSGSGTDFTFTISSLQPEDIATYYCKHHFGFPRTFGQGTKVEIKR | 0.27 nM | 290 nM | 12 s⁻¹
5 | H1022/L0442 (antibody, human IgG1, kappa, name in Kabat numbering, V domains shown, L442 = L395 + S31E) VH: QVQLVESGGGLVQPGGSLRLSCAASGFTFSDYYLSWVRQAPGKGLEWVGLIRNKDNHHHPEYSASVKGRFTISRDDSKNSLYLTMSDLKTEDTAVYYCARENHRYDVELAYWGQGTLVTVSS VL: DIQMTQSPSSLSASVGDRVTITCRASEIIYEYLAWYQQKPGKAPKLLIYKAKTHADGVPSRFSGSGSGTDFTFTISSLQPEDIATYYCKHHFGFPRTFGQGTKVEIKR | 0.36 nM | 180 nM | 0.02 s⁻¹
6 | H1028/L0395 (antibody, human IgG1, kappa, name in Kabat numbering, V domains shown) VH: QVQLVESGGGLVQPGGSLRLSCAASGFTFSDYYLSWVRQAPGKGLEWVGLIRNKDNYHHPEYSASVKGRFTISRDDSKNSLYLTMSDLKTEDTAVYYCARENHRYDVELAYWGQGTLVTVSS VL: DIQMTQSPSSLSASVGDRVTITCRASEIIYSYLAWYQQKPGKAPKLLIYKAKTHADGVPSRFSGSGSGTDFTFTISSLQPEDIATYYCKHHFGFPRTFGQGTKVEIKR | 0.18 nM | 210 nM | 
7 | H1028/L0442 (antibody, human IgG1, kappa, name in Kabat numbering, V domains shown, L442 = L395 + S31E) VH: QVQLVESGGGLVQPGGSLRLSCAASGFTFSDYYLSWVRQAPGKGLEWVGLIRNKDNYHHPEYSASVKGRFTISRDDSKNSLYLTMSDLKTEDTAVYYCARENHRYDVELAYWGQGTLVTVSS VL: DIQMTQSPSSLSASVGDRVTITCRASEIIYEYLAWYQQKPGKAPKLLIYKAKTHADGVPSRFSGSGSGTDFTFTISSLQPEDIATYYCKHHFGFPRTFGQGTKVEIKR | 0.24 nM | 140 nM | 0.13 s⁻¹
8 | H1031/L0395 (antibody, human IgG1, kappa, name in Kabat numbering, V domains shown) VH: QVQLVESGGGLVQPGGSLRLSCAASGFTFDKYYLSWVRQAPGKGLEWVGLIRNKDNHHHPEYSASVKGRFTISRDDSKNSLYLTMSDLKTEDTAVYYCARENHRYDVELAYWGQGTLVTVSS VL: DIQMTQSPSSLSASVGDRVTITCRASEIIYSYLAWYQQKPGKAPKLLIYKAKTHADGVPSRFSGSGSGTDFTFTISSLQPEDIATYYCKHHFGFPRTFGQGTKVEIKR |  | 99 nM | 
9 | H1031/L0442 (antibody, human IgG1, kappa, name in Kabat numbering, V domains shown, L442 = L395 + S31E) VH: QVQLVESGGGLVQPGGSLRLSCAASGFTFDKYYLSWVRQAPGKGLEWVGLIRNKDNHHHPEYSASVKGRFTISRDDSKNSLYLTMSDLKTEDTAVYYCARENHRYDVELAYWGQGTLVTVSS VL: DIQMTQSPSSLSASVGDRVTITCRASEIIYEYLAWYQQKPGKAPKLLIYKAKTHADGVPSRFSGSGSGTDFTFTISSLQPEDIATYYCKHHFGFPRTFGQGTKVEIKR |  | 89 nM | 
10 | H1046/L0442 (antibody, human IgG1, kappa, name in Kabat numbering, V domains shown, L442 = L395 + S31E) VH: QVQLVESGGGLVQPGGSLRLSCAASGFTFSEYYLSWVRQAPGKGLEWVGLIRNKDNYHHPEYSASVKGRFTISRDDSKNSLYLTMSDLKTEDTAVYYCARENHRYDVELAYWGQGTLVTVSS VL: DIQMTQSPSSLSASVGDRVTITCRASEIIYEYLAWYQQKPGKAPKLLIYKAKTHADGVPSRFSGSGSGTDFTFTISSLQPEDIATYYCKHHFGFPRTFGQGTKVEIKR | 0.23 nM |  | 
11 | H1048/L0395 (antibody, human IgG1, kappa, name in Kabat numbering, V domains shown) VH: QVQLVESGGGLVQPGGSLRLSCAASGFTFSEYYLSWVRQAPGKGLEWVGLIRNKDNGYTPEYSASVKGRFTISRDDSKNSLYLTMSDLKTEDTAVYYCARENHRYDVELAYWGQGTLVTVSS VL: DIQMTQSPSSLSASVGDRVTITCRASEIIYSYLAWYQQKPGKAPKLLIYKAKTHADGVPSRFSGSGSGTDFTFTISSLQPEDIATYYCKHHFGFPRTFGQGTKVEIKR |  | 90 nM | 

Second part, the binder after the results:

Row | Kd [1] | Kd [2] | koff [2] | Binder
12 | 0.2 nM | 71 nM | 0.017 s⁻¹ | H1000/L0442 (antibody, human IgG1, kappa, name in Kabat numbering, V domains shown, L442 = L395 + S31E) VH: QVQLVESGGGLVQPGGSLRLSCAASGFTFSEYYLSWVRQAPGKGLEWVGLIRNKDNHHTPEYSASVKGRFTISRDDSKNSLYLTMSDLKTEDTAVYYCARENHRYDVELAYWGQGTLVTVSS VL: DIQMTQSPSSLSASVGDRVTITCRASEIIYEYLAWYQQKPGKAPKLLIYKAKTHADGVPSRFSGSGSGTDFTFTISSLQPEDIATYYCKHHFGFPRTFGQGTKVEIKR
13 | 0.22 nM | 77 nM | 0.02 s⁻¹ | H1004/L0442 (antibody, human IgG1, kappa, name in Kabat numbering, V domains shown, L442 = L395 + S31E) VH: QVQLVESGGGLVQPGGSLRLSCAASGFTFSDYYLSWVRQAPGKGLEWVGLIRNKDNGYTPEYSASVKGRFTISRDDSKNSLYLTMSDLKTEDTAVYYCARENHRYDVELAYWGQGTLVTVSS VL: DIQMTQSPSSLSASVGDRVTITCRASEIIYEYLAWYQQKPGKAPKLLIYKAKTHADGVPSRFSGSGSGTDFTFTISSLQPEDIATYYCKHHFGFPRTFGQGTKVEIKR
14 | 0.11 nM | 63 nM | 0.006 s⁻¹ | H1009/L0442 (antibody, human IgG1, kappa, name in Kabat numbering, V domains shown, L442 = L395 + S31E) VH: QVQLVESGGGLVQPGGSLRLSCAASGFTFSDYYLSWVRQAPGKGLEWVGLIRNKDNYHTPEYSASVKGRFTISRDDSKNSLYLTMSDLKTEDTAVYYCARENHRYDVELAYWGQGTLVTVSS VL: DIQMTQSPSSLSASVGDRVTITCRASEIIYEYLAWYQQKPGKAPKLLIYKAKTHADGVPSRFSGSGSGTDFTFTISSLQPEDIATYYCKHHFGFPRTFGQGTKVEIKR
15 | 0.086 nM | 55 nM | 0.008 s⁻¹ | H1029/L0395 (antibody, human IgG1, kappa, name in Kabat numbering, V domains shown) VH: QVQLVESGGGLVQPGGSLRLSCAASGFTFDKYYLSWVRQAPGKGLEWVGLIRNKDNHHTPEYSASVKGRFTISRDDSKNSLYLTMSDLKTEDTAVYYCARENHRYDVELAYWGQGTLVTVSS VL: DIQMTQSPSSLSASVGDRVTITCRASEIIYSYLAWYQQKPGKAPKLLIYKAKTHADGVPSRFSGSGSGTDFTFTISSLQPEDIATYYCKHHFGFPRTFGQGTKVEIKR
16 | 0.14 nM | 48 nM | 0.0085 s⁻¹ | H1029/L0442 (antibody, human IgG1, kappa, name in Kabat numbering, V domains shown, L442 = L395 + S31E) VH: QVQLVESGGGLVQPGGSLRLSCAASGFTFDKYYLSWVRQAPGKGLEWVGLIRNKDNHHTPEYSASVKGRFTISRDDSKNSLYLTMSDLKTEDTAVYYCARENHRYDVELAYWGQGTLVTVSS VL: DIQMTQSPSSLSASVGDRVTITCRASEIIYEYLAWYQQKPGKAPKLLIYKAKTHADGVPSRFSGSGSGTDFTFTISSLQPEDIATYYCKHHFGFPRTFGQGTKVEIKR
17 | 0.042 nM | 50 nM | 0.0041 s⁻¹ | H1032/L0395 (antibody, human IgG1, kappa, name in Kabat numbering, V domains shown) VH: QVQLVESGGGLVQPGGSLRLSCAASGFTFDKYYLSWVRQAPGKGLEWVGLIRNKDNGYHPEYSASVKGRFTISRDDSKNSLYLTMSDLKTEDTAVYYCARENHRYDVELAYWGQGTLVTVSS VL: DIQMTQSPSSLSASVGDRVTITCRASEIIYSYLAWYQQKPGKAPKLLIYKAKTHADGVPSRFSGSGSGTDFTFTISSLQPEDIATYYCKHHFGFPRTFGQGTKVEIKR
18 | 0.078 nM | 43 nM | 0.0059 s⁻¹ | H1032/L0442 (antibody, human IgG1, kappa, name in Kabat numbering, V domains shown, L442 = L395 + S31E) VH: QVQLVESGGGLVQPGGSLRLSCAASGFTFDKYYLSWVRQAPGKGLEWVGLIRNKDNGYHPEYSASVKGRFTISRDDSKNSLYLTMSDLKTEDTAVYYCARENHRYDVELAYWGQGTLVTVSS VL: DIQMTQSPSSLSASVGDRVTITCRASEIIYEYLAWYQQKPGKAPKLLIYKAKTHADGVPSRFSGSGSGTDFTFTISSLQPEDIATYYCKHHFGFPRTFGQGTKVEIKR
19 |  | 47 nM |  | H1047/L0442 (antibody, human IgG1, kappa, name in Kabat numbering, V domains shown, L442 = L395 + S31E) VH: QVQLVESGGGLVQPGGSLRLSCAASGFTFDKYYLSWVRQAPGKGLEWVGLIRNKDNGYTPEYSASVKGRFTISRDDSKNSLYLTMSDLKTEDTAVYYCARENHRYDVELAYWGQGTLVTVSS VL: DIQMTQSPSSLSASVGDRVTITCRASEIIYEYLAWYQQKPGKAPKLLIYKAKTHADGVPSRFSGSGSGTDFTFTISSLQPEDIATYYCKHHFGFPRTFGQGTKVEIKR
20 |  | 67 nM |  | H1048/L0442 (antibody, human IgG1, kappa, name in Kabat numbering, V domains shown, L442 = L395 + S31E) VH: QVQLVESGGGLVQPGGSLRLSCAASGFTFSEYYLSWVRQAPGKGLEWVGLIRNKDNGYTPEYSASVKGRFTISRDDSKNSLYLTMSDLKTEDTAVYYCARENHRYDVELAYWGQGTLVTVSS VL: DIQMTQSPSSLSASVGDRVTITCRASEIIYEYLAWYQQKPGKAPKLLIYKAKTHADGVPSRFSGSGSGTDFTFTISSLQPEDIATYYCKHHFGFPRTFGQGTKVEIKR
